Data on 83 variants can be found in the RNAGym collection of RNA variant scans (doi:10.1073/pnas.2313332121).

The labels stand for the following.
B1: TPR t1 (parent)
chain: GACCAAUCUGCCCUCAGAGCUCGAGAACAUCUUCGGAUGCAGAGGAGGCAGGCUUCGGUGGCGCGAUAGCGCCAACGUCCUCAACCUCCAAUGCAUCCCACCACAUGAUGAUGCCUGAAGAGCCUUGGUUUUUUG

The variants in the data set derive from B1. Description: polymerase ribozyme fitness, log enrichment relative to wild type (log ratio); higher = more active; in vitro selection for triplet polymerase activity. In a few lines: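 Mutant libraries of both subunits of a heterodimeric triplet polymerase ribozyme were PCR-built, transcribed, and selected once in triplicate, with frozen incubation at −7 °C and capture of gel-excised extended constructs on streptavidin beads before RT-PCR. Illumina sequencing of input and output libraries was filtered to genotypes with ≥10 input reads and ≥1 read per output. Fitness is the logarithm of genotype enrichment over wild-type enrichment, using inverse-variance-weighted replicate averages. The logarithm is base 2.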
Take G48U G117C: the “polymerase ribozyme fitness (log ratio)” value was -4.06.
Consider G48A C70U C115A, for which the “polymerase ribozyme fitness (log ratio)” value was -1.87.
The result for G48A G113A reads -1.61; that for G47U G61C A111C, -2.97; that for A46U C94G C98U, -4.76.
G48A G127C: the “polymerase ribozyme fitness (log ratio)” value is -2.52.
On to G48C C56A C72A U78A, for which the “polymerase ribozyme fitness (log ratio)” value was -1.06.
The result for A46U A121U reads 0.389; that for G47U C101U U125G U126C, -2.99.
In the case of G47C U125A, the “polymerase ribozyme fitness (log ratio)” value is -2.59.
In the case of G48C G60U, the “polymerase ribozyme fitness (log ratio)” value is -2.22.
The result for G47A G71C reads -1.56; that for G47C A50U C72U U81C C114U, -5.1; that for G47U G61U G110A, -3.87.
The result for G47U G93U reads -2.97; that for G47C U55G G63A C104U, -3.2.
As to G48U U54G G58C U129A, the “polymerase ribozyme fitness (log ratio)” value is -2.45.
As for G47A C70U, the “polymerase ribozyme fitness (log ratio)” value was -1.86.
Regarding G47A U96G G110A, the “polymerase ribozyme fitness (log ratio)” value is -3.19.
The result for G48A G63U C101A reads -2.69; that for A46U G52U C123A, -3.01.
The result for A46U A103C C115G reads -6.95; that for G47C C49G, -2.19; that for G47A G60A C85G C123U, -3.19.
The result for A46U G69U C115A reads -0.295; that for G48U U87G C115G, -0.14.
In the case of A46U G61A, the “polymerase ribozyme fitness (log ratio)” value is 0.101.
The result for G48U G69U G135A reads -1.62; that for G48U G113A, -1.18.
The result for G47A C73U G117U G135U reads -5.34.
For the variant G48C A83G G122U, the “polymerase ribozyme fitness (log ratio)” value was -1.4.
As for G48A G77U, the “polymerase ribozyme fitness (log ratio)” value is -2.11.
G48A C72G A103U A119G: the “polymerase ribozyme fitness (log ratio)” value is -3.79.
Turning to A46U G63C U112C G117C A121U, the “polymerase ribozyme fitness (log ratio)” value is -3.75.
The result for G48A G60U reads -0.531; that for C49A C64U U129C U133C, -0.175; that for C49A C72G, -0.887.
Consider G47U C80G U87A C101U C123A G127A, for which the “polymerase ribozyme fitness (log ratio)” value is -5.76.
For G48A U59C C82A G93C U116G U131A, the “polymerase ribozyme fitness (log ratio)” value was -4.51.
In the case of G48A U54G C85U, the “polymerase ribozyme fitness (log ratio)” value was -0.681.
As for A46U G135C, the “polymerase ribozyme fitness (log ratio)” value was -1.33.
The result for A46U G135U reads -1.71; that for A46U G48A C79G C82U G120A C123A, -3.09; that for G48A G122C C123G G127A, -2.37.
The result for G47U C49G reads -0.991.
A46U U54G C72A C82A G110U: the “polymerase ribozyme fitness (log ratio)” value is -4.48.
The result for G48A G63C C72U C124G reads -0.71.
For the variant A46G U78A U112G, the “polymerase ribozyme fitness (log ratio)” value was found to be 0.172.
The result for G48U G93A reads -0.946; that for C49A C72U U109C U112A A121C, -6.03; that for G48U U92C G120A G127C U134G, -1.91.
The result for G48A C70A G120U G128A G135A reads -2.26; that for G47U U78G G135A, -1.83; that for G48A A66U U78G, -1.56.
G48C G71A A108G U112C G117U: the “polymerase ribozyme fitness (log ratio)” value is -6.18.
The result for G47U A90U G117C reads -4.37; that for G47A C101U G122A, -1.99; that for G47U C56U A95U, -1.34.
The result for G48C G52A C102A A111C A119U reads -4.33; that for G48U C72U C73A G127A G135C, -1.64.
The result for G48A reads -0.658.
With G48U, the “polymerase ribozyme fitness (log ratio)” value is -0.903.
The result for G48C reads -0.943; that for G48C C73G G93A C124A, -1.39; that for G48U C123A U126A, -2.05.
Turning to C49A C56A U130C, the “polymerase ribozyme fitness (log ratio)” value is -0.746.
The result for G47A A50U G60C G77A reads -5; that for A46U C56U C114A, -2.28.
The result for G47U C123A reads -0.877.
Turning to A46U U55A G69A U125A, the “polymerase ribozyme fitness (log ratio)” value was -4.29.
The result for G47A G61A C85A C98A reads -6.7.
For G47U G61C U126G, the “polymerase ribozyme fitness (log ratio)” value is -4.45.
The result for A46U A66C C123G C124A reads 0.0849; that for G48U C89A, -1.52; that for G48A C85U, -0.302.
The result for A46U G117A reads -2.21; that for A46U G77C, -1.54; that for G48U U54C C101U U130G, -1.13.
The result for G48C C70U reads -0.829; that for G48C A83U U87A, -0.806; that for G47A C114A, -2.59.
Turning to G47A C86A A90G G117U G120C, the “polymerase ribozyme fitness (log ratio)” value was -0.329.
The result for A46U G69A reads -3.54.
